These results are taken from US20120100139A1 (APTEVO RESEARCH AND DEVELOPMENT, published 2012).

In assay [1] the target is CD86-mIgG (Ancell, Inc) (UniProt P42081). The assay is described as follows: SPR (BIAcore T100), CD86-mIgG immobilized on CM5; second site. A general note: Surface plasmon resonance follows binding to a sensor surface in real time, without labels.
Assay [2] shares this target. The assay is described as follows: SPR (BIAcore T100), CD86-mIgG immobilized on CM5; first site.
Assay [3] has the same target. The assay is described as follows: SPR (BIAcore T100), CD86-mIgG immobilized on CM5; steady-state equilibrium fit.
In assay [4] the target is T1, Murine CD86-mIgG (R&D Systems, Inc) (murine, UniProt P42082 24-244, limits assumed).
T1 construct: also called muCD86
T1 sequence (looked up): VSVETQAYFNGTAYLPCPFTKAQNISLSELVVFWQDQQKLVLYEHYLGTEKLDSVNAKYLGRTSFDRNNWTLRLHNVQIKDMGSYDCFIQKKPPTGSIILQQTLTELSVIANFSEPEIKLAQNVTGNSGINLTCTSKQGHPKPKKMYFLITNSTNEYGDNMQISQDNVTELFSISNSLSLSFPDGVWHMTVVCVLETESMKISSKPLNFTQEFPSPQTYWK
The assay is described as follows: SPR (BIAcore T100), murine CD86-mIgG immobilized on CM5; bivalent analyte model, second site. Here is the method: (§1) SPR measurements were performed on a BIAcore™ T100 SPR (Pharmacia Biotech AB, Uppsala) using HBS-EP+ (GE Healthcare) as a running buffer. Murine CD86-mIgG (25 μg/mL in 10 mM sodium acetate, pH 4.0, R&D Systems, Inc) was directly immobilized onto a CM5 chip using standard amine coupling chemistry (Biacore Amine Coupling Kit, GE Healthcare), with final immobilization levels of 150, 493, and 746 Ru. CTLA4-containing constructs were injected for 150 seconds, at a flow rate of 10 μl/min, in a series of concentrations from 4 nM to 8 μM. Dissociation was monitored for 600 seconds (CTLA4 constructs) or 1200 seconds (GL1 constructs), and the surface was regenerated by injecting 10 mM glycine, pH 1.7, for 60 seconds. […] Data were analyzed using BiaEvaluation for the T100 software (version 2.0.1, GE Healthcare).

Assay [5] has as its target T2, CD80-mIg (Ancell Catalog #510-020) (UniProt P33681 35-242).
T2 construct: Bought reagent; also called CD80-mIgG; sCD80
T2 sequence (looked up): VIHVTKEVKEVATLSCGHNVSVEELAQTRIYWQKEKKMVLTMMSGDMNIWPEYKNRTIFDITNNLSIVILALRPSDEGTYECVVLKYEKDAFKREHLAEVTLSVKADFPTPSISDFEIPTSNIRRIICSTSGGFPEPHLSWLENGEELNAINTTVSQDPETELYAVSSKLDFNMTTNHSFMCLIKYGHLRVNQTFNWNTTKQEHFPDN
The assay can be described thus: SPR (BIAcore T100), CD80-mIgG immobilized on CM5; bivalent analyte model, second site. Here is the method:
(§2) Surface plasmon resonance (SPR) measurements were performed on a BIAcore™ T100 SPR (Pharmacia Biotech AB, Uppsala) using HBS-EP+ (GE Healthcare) as a running buffer. […] CTLA4-containing constructs were injected for 150 seconds, at a flow rate of 10 μl/min, in a series of concentrations from 5 nM to 1 μM. Dissociation was monitored for 600 seconds, and the surface was regenerated by injecting 50 mM sodium citrate, 500 mM sodium chloride, pH 4.0, for 60 seconds. […] Data were analyzed using BiaEvaluation for the T100 software (version 2.0.1, GE Healthcare).

Assay [6] addresses T2, CD80-mIg (Ancell Catalog #510-020). The assay is described as follows: SPR (BIAcore T100), CD80-mIgG immobilized on CM5; steady-state equilibrium fit. Here is the method:
as §2

Assay [7] addresses T3, CD86-mIgG (Ancell, Inc) (UniProt P42081 24-247, limits assumed).
T3 construct: Bought reagent
T3 sequence (looked up): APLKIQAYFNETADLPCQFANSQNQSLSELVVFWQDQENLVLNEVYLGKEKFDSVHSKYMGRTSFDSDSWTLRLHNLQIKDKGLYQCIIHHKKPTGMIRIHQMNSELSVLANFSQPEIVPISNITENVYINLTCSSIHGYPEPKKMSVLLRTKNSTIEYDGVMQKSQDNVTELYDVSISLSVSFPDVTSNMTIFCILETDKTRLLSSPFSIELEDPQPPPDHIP
The assay can be described thus: SPR (BIAcore T100), CD86-mIgG immobilized on CM5; steady-state equilibrium fit. Here is the method: (§3) SPR measurements were performed on a BIAcore™ T100 SPR (Pharmacia Biotech AB, Uppsala) using HBS-EP+ (GE Healthcare) as a running buffer. […] CTLA4-containing constructs were injected for 150 seconds, at a flow rate of 10 μl/min, in a series of concentrations from 4 nM to 10 μM. Dissociation was monitored for 600 seconds, and the surface was either regenerated by injecting 50 mM sodium citrate, 500 mM sodium chloride, pH 5.0, for 60 seconds (wild type CTLA4) or 10 mM glycine, pH 1.7 (L104E A29Y CTLA4). […] Data were analyzed using BiaEvaluation for the T100 software (version 2.0.1, GE Healthcare).
SPR measurements were performed as listed above, with the following exceptions: HBS-P+ (GE Healthcare) was used as a running buffer; dissociation was monitored for 1200 seconds; and the surface was regenerated by injecting 10 mM glycine, pH 1.7, for 60 seconds.

Assay [8] addresses T1, Murine CD86-mIgG (R&D Systems, Inc). The assay is described as follows: SPR (BIAcore T100), murine CD86-mIgG immobilized on CM5; bivalent analyte model, first site. On the procedure:
as §1

Assay [9] concerns the target T3, CD86-mIgG (Ancell, Inc). The assay can be described thus: SPR (BIAcore T100), CD86-mIgG immobilized on CM5; bivalent analyte model, first site. Here is the method:
as §3

The target of assay [10] is T1, Murine CD86-mIgG (R&D Systems, Inc). The assay can be described thus: SPR (BIAcore T100), murine CD86-mIgG immobilized on CM5; steady-state equilibrium, multiple Rmax fit. On the procedure:
as §1

The target in assay [11] is T2, CD80-mIg (Ancell Catalog #510-020). The assay can be described thus: SPR (BIAcore T100), CD80-mIgG immobilized on CM5; bivalent analyte model, first site. Here is the method:
as §2

Assay [12] has as its target T4, PD1 ectodomain fused to a C-terminal AviTag, biotinylated (biotinylated on the AviTag with the BirA enzyme).
T4 construct: also called biotinylated PD1
T4 chain: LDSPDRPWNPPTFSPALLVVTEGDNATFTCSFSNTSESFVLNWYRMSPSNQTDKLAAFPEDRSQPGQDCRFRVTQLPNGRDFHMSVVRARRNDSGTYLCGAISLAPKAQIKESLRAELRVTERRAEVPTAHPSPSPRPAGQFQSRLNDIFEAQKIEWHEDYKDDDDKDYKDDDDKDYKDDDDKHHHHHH
The assay is described as follows: SPR (BIAcore T100), biotinylated PD1 captured on neutravidin; bivalent analyte model, first site. On the procedure:
(§4) SPR measurements were performed on a BIAcore™ T100 SPR (Pharmacia Biotech AB, Uppsala) using HBS-P+ (GE Healthcare) as a running buffer. […] PDL1/2-containing constructs were injected for 120 seconds, at a flow rate of 30 μl/min, in a series of concentrations from 6 nM to 2 μM. Dissociation was monitored for 1200 seconds, and the surface was regenerated by injecting 50 mM NaOH, 1M NaCl for 30 seconds.
(§5) Data were analyzed using BiaEvaluation for the T100 software (version 2.0.1, GE Healthcare).

In assay [13] the target is T4, PD1 ectodomain fused to a C-terminal …. The assay is described as follows: SPR (BIAcore T100), biotinylated PD1 captured on neutravidin; steady-state equilibrium fit. On the procedure: as §4, §5

For the molecule muIL 10-Ig, in the assay with CD86-mIgG (Ancell, Inc) [1], the Second Site ka came out at 0.0203 s⁻¹ and the Second Site kd worked out at 0.0722 s⁻¹. In the assay with CD86-mIgG (Ancell, Inc) [2], the koff was determined as 0.00018 s⁻¹ and the kon came to 94100 M⁻¹ s⁻¹. The same molecule had a Kd with CD86-mIgG (Ancell, Inc) [3] of 50.6 nM.

B1: CTLA4-Fc fusion containing the L104E A29Y mutations, analogous to belatacept (Fc fusion)
chain: MHVAQPAVVLASSRGIASFVCEYASPGKYTEVRVTVLRQADSQVTEVCAATYMMGNELTFLDDSICTGTSSGNQVNLTIQGLRAMDTGLYICKVELMYPPPYYEGIGNGTQIYVIDPEPCPDSDLEPKSSDKTHTCPPCPAPEAAGAPSVFLFPPKPKDTLMISRTPEVTCVVVDVSHEDPEVKFNWYVDGVEVHNAKTKPREEQYNSTYRVVSVLTVLHQDWLNGKAYACAVSNKALPAPIEKTISKAKGQPREPQVYTLPPSRDELTKNQVSLTCLVKGFYPSDIAVEWESNGQPENNYKTTPPVLDSDGSFFLYSKLTVDKSRWQQGNVFSCSVMHEALHNHYTQKSLSLSPG
notes: the mutations are in the entry
As to B1, the “Second Site ka” value in assay [4] was determined as 0.0728 s⁻¹; in assay [5] it was 0.00102 s⁻¹. The “Second Site kd” value in assay [4] was determined as 0.168 s⁻¹; in [5], 0.00332 s⁻¹. The Kd in [6] is 13.3 nM; in the assay with CD86-mIgG (Ancell, Inc) [7], 772 nM; in assay [10] it was 920 nM. For the same molecule, the koff turned out to be 0.0787 s⁻¹ in [8]; 0.0102 s⁻¹ in the assay with CD86-mIgG (Ancell, Inc) [9]; 0.00373 s⁻¹ in assay [11]. Also, the kon in [8] came to 27800 M⁻¹ s⁻¹; with CD86-mIgG (Ancell, Inc) [9], 84700 M⁻¹ s⁻¹; in [11] it was 155000 M⁻¹ s⁻¹.

B2: PDL2-Fc (Fc fusion)
chain: LFTVTVPKELYIIEHGSNVTLECNFDTGSHVNLGAITASLQKVENDTSPHRERATLLEEQLPLGKASFHIPQVQVRDEGQYQCIIIYGVAWDYKYLTLKVKASYRKINTHILKVPETDEVELTCQATGYPLAEVSWPNVSVPANTSHSRTPEGLYQVTSVLRLKPPPGRNFSCVFWNTHVRELTLASIDLQSQMEPRTHPTLEPKSSDKTHTCPPCPAPEAAGAPSVFLFPPKPKDTLMISRTPEVTCVVVDVSHEDPEVKFNWYVDGVEVHNAKTKPREEQYNSTYRVVSVLTVLHQDWLNGKAYACAVSNKALPAPIEKTISKAKGQPREPQVYTLPPSRDELTKNQVSLTCLVKGFYPSDIAVEWESNGQPENNYKTTPPVLDSDGSFFLYSKLTVDKSRWQQGNVFSCSVMHEALHNHYTQKSLSLSPG
Turning to B2, in assay [12], the off-rate (koff) turned out to be 0.00724 s⁻¹ and the kon came out at 165000 M⁻¹ s⁻¹. The molecule further displayed a Kd in [13] of 42 nM.

B3: xceptor including a CTLA4 ectodomain with the L104E A29Y mutations and an IL10 domain (Fc fusion)
chain: MHVAQPAVVLASSRGIASFVCEYASPGKYTEVRVTVLRQADSQVTEVCAATYMMGNELTFLDDSICTGTSSGNQVNLTIQGLRAMDTGLYICKVELMYPPPYYEGIGNGTQIYVIDPEPCPDSDLEPKSSDKTHTCPPCPAPEAAGAPSVFLFPPKPKDTLMISRTPEVTCVVVDVSHEDPEVKFNWYVDGVEVHNAKTKPREEQYNSTYRVVSVLTVLHQDWLNGKAYACAVSNKALPAPIEKTISKAKGQPREPQVYTLPPSRDELTKNQVSLTCLVKGFYPSDIAVEWESNGQPENNYKTTPPVLDSDGSFFLYSKLTVDKSRWQQGNVFSCSVMHEALHNHYTQKSLSLSPGQRHNNSSLNTGTQMAGHSPNSSPGQGTQSENSCTHFPGNLPNMLRDLRDAFSRVKTFFQMKDQLDNLLLKESLLEDFKGYLGCQALSEMIQFYLEEVMPQAENQDPDAKAHVNSLGENLKTLRLRLRRCHRFLPCENKSKAVEQVKNAFNKLQEKGIYKAMSEFDIFINYIEAYMTMKIRN
notes: as for B1
For B3, the entries for the “Second Site ka” value in [4] and in [5] were 0.00026 s⁻¹ and 0.00406 s⁻¹, respectively. In addition, the “Second Site kd” value came out at 0.00193 s⁻¹ in [4] and 0.00706 s⁻¹ in assay [5]. Further, the dissociation constant (Kd) was determined as 19.1 nM in assay [6]; 670 nM with CD86-mIgG (Ancell, Inc) [7]; 870 nM in assay [10]. Besides, the koff in assay [8] stood at 0.0418 s⁻¹; in the assay with CD86-mIgG (Ancell, Inc) [9] it was 0.0091 s⁻¹; in assay [11], 0.00235 s⁻¹. For the same molecule, the kon is 32100 M⁻¹ s⁻¹ in assay [8]; 45100 M⁻¹ s⁻¹ in the assay with CD86-mIgG (Ancell, Inc) [9]; 90800 M⁻¹ s⁻¹ in assay [11].

Usually koff stands for the rate constant with which the complex falls apart. A low value points to a long-lived complex. Broadly, the kon is a measure of how fast the partners come together. The low end stands for slow association, the high end for fast association. What is called Kd is a measure of binding affinity in units of concentration. High values mean a looser complex, low ones a tighter complex.
